Reference: patent publication US20140322196A1 (priority 2011, published 2014)
Read-outs that look alike come from different tables or passages of the source.

B1: C-lobe: bovine lactoferrin C-lobe as named in the text, without saying which of the two fragments of Table 2 (protein)
chain: YTRVVWCAVGPEEQKKCQQWSQQSGQNVTCATASTTDDCIVLVLKGEADALNLDGGYIYTAGKCGLVPVLAENRKSSKHSSLDCVLRPTEGYLAVAVVKKANEGLTWNSLKDKKSCHTAVDRTAGWNIPMGLIVNQTGSCAFDEFFSQSCAPGADPKSRLCALCAGDDQGLDKCVPNSKEKYYGYTGAFRCLAEDVGDVAFVKNDTVWENTNGESTADWAKNLNREDFRLLCLDGTRKPVTEAQSCHLAVAPNHAVVSRSDRAAHVKQVLLHQQALFGKNGKNCPDKFCLFKSETKNLLFNDNTECLAKLGGRPTYEEYLGTEYVTAIANLKKCSTSPLLEACAFLTR
modifications: bovine lactoferrin C-lobe peptide
B2: bLf: Lactoferrin from bovine milk, purchased from Morinaga Milk Industries, deprived of endotoxin (protein, UniProt P24627 20-708, looked up)
Lactotransferrin: APRKNVRWCTISQPEWFKCRRWQWRMKKLGAPSITCVRRAFALECIRAIAEKKADAVTLDGGMVFEAGRDPYKLRPVAAEIYGTKESPQTHYYAVAVVKKGSNFQLDQLQGRKSCHTGLGRSAGWIIPMGILRPYLSWTESLEPLQGAVAKFFSASCVPCIDRQAYPNLCQLCKGEGENQCACSSREPYFGYSGAFKCLQDGAGDVAFVKETTVFENLPEKADRDQYELLCLNNSRAPVDAFKECHLAQVPSHAVVARSVDGKEDLIWKLLSKAQEKFGKNKSRSFQLFGSPPGQRDLLFKDSALGFLRIPSKVDSALYLGSRYLTTLKNLRETAEEVKARYTRVVWCAVGPEEQKKCQQWSQQSGQNVTCATASTTDDCIVLVLKGEADALNLDGGYIYTAGKCGLVPVLAENRKSSKHSSLDCVLRPTEGYLAVAVVKKANEGLTWNSLKDKKSCHTAVDRTAGWNIPMGLIVNQTGSCAFDEFFSQSCAPGADPKSRLCALCAGDDQGLDKCVPNSKEKYYGYTGAFRCLAEDVGDVAFVKNDTVWENTNGESTADWAKNLNREDFRLLCLDGTRKPVTEAQSCHLAVAPNHAVVSRSDRAAHVKQVLLHQQALFGKNGKNCPDKFCLFKSETKNLLFNDNTECLAKLGGRPTYEEYLGTEYVTAIANLKKCSTSPLLEACAFLTR

How the values were obtained:
[1] = test system: all tested virus strains (Influenza A H1N1, H3N2, H5N1, H7N1)
[2] = test system: Influenza A/H1N1 (A/Roma-ISS/2/08 and A/Parma/24/09) and A/H3N2 (A/Parma/05/06); type: cell-based, Influenza A virus
[3] = test system: Influenza virus A/RomaISS/2/08; type: binding
[4] = test system: Avian 29/05/06 inactivated vaccine H5N1; type: cell-based, Influenza A virus; details: Avian 29/05/06 H5N1 inactivated vaccine
[5] = test system: HA and NA surface antigens of Solomon (H1N1) and Wisconsin (H3N2) subunit vaccines; type: binding, Influenza A virus
[6] = test system: A/Roma-ISS/2/08 (Brisbane-like) (oseltamivir-sensitive) H1N1; type: cell-based, Influenza A virus
[7] = test system: A/Wisconsin (67/05) inactivated subunits, vaccine H3N2; type: cell-based, Influenza A virus
[8] = test system: A/Turkey/Italy/2676/99 H7N1; type: cell-based, Influenza A virus
[9] = test system: A/PR/8/34 H1N1; type: cell-based, Influenza A virus
[10] = test system: SW X-179A 1089/09 inactivated subunits, vaccine H1N1; type: cell-based, Influenza A virus
[11] = test system: A/Solomon (3/06) inactivated subunits, vaccine H1N1; type: cell-based, Influenza A virus
[12] = test system: A/Parma/5/06 (Wisconsin-like) H3N2; type: cell-based, Influenza A virus

Row | Molecule | inhibition of viral hemagglutination (in words) [1] | effect on virus replication / infection (in words) [2] | virus binding to bLf ([3]; pH 4) | virus binding to bLf ([3]; pH 5) | virus binding to bLf ([3]; pH 6) | HI titre [4] [pM] | bLf binding to viral envelope proteins (in words) [5] | HI titre [6] [nM] | HI titre [7] [pM] | HI titre [8] [fM] | HI titre [9] [nM] | substance-induced agglutination or erythrocyte lysis ([1]; turkey red blood cells, in the hemagglutination assays) | HI titre [10] [fM] | HI titre [11] [pM] | HI titre [12] [nM]
1 | B1 | marked inhibition of viral hemagglutination | highly inhibited | – | – | – | – | – | – | – | – | – | – | – | – | –
2 | B2 | – | markedly inhibited | 47.2+/−1.4% | 52.9+/−9.7% | 34.1+/−4.1% | 2.9 | binds to a viral protein of apparent molecular mass of 28 kDa | 6 | 0.3 | 93.1 | 3 | Neither bLf-induced agglutination nor visual evidence of erythrocyte lysis was observed | 46.5 | 5 | 3
